Values of other authors, collected in PMC4934914.

Key:
[1] = target: BsHemH (Bacillus subtilis) (UniProt P32396)
[2] = target: BsSufU (Bacillus subtilis) (UniProt O32163)
[3] = target: IscS (Escherichia coli) (UniProt P0A6B7)
IscS (Escherichia coli), sequence (P0A6B7 whole entry): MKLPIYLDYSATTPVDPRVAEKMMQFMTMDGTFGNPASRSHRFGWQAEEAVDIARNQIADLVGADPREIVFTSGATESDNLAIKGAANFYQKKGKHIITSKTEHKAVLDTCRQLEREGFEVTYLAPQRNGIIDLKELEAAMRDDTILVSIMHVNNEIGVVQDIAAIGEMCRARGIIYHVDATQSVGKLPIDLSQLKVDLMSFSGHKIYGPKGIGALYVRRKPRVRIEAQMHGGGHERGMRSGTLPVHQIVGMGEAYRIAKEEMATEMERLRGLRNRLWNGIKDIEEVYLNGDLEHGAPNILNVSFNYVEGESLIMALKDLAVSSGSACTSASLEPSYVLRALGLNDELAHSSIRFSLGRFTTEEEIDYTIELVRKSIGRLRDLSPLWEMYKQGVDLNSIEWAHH

BsHemH (Bacillus subtilis), sequence (P32396 whole entry): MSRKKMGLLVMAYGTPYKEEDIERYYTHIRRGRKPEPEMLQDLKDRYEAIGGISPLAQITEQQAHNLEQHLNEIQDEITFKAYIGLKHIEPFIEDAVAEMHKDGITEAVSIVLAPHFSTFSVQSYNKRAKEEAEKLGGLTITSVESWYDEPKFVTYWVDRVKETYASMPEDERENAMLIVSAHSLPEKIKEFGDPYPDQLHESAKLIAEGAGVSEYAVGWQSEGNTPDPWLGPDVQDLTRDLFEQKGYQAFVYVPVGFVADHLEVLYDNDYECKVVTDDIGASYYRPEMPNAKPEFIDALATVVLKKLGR
CyaY, sequence (P27838 whole entry): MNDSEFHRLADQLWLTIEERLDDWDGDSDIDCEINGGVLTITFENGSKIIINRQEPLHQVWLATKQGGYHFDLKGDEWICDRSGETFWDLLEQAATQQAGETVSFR
BsSufU (Bacillus subtilis), sequence (O32163 whole entry): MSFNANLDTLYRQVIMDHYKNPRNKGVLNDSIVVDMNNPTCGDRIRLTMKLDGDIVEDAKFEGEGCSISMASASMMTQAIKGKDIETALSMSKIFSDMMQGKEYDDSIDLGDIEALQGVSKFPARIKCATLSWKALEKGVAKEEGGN
BsFra (frataxin), sequence (Q797E6 whole entry): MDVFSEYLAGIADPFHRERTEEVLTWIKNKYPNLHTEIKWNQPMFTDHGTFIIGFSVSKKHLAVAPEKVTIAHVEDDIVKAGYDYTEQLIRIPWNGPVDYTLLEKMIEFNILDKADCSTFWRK
BsSufS, sequence (O32164 whole entry): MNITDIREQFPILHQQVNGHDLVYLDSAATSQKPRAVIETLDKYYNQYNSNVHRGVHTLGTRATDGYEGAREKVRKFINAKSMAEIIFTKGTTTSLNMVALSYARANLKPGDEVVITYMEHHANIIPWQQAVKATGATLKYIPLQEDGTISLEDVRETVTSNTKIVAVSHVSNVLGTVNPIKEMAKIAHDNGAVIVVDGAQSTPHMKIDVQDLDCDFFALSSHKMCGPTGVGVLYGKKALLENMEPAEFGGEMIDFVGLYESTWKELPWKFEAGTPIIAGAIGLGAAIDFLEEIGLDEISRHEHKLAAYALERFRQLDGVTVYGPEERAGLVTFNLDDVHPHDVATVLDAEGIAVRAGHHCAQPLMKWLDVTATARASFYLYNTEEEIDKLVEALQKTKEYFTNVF

Substance: BsFra (frataxin) (from UniProt Q797E6)
- Kd [1]: 1630 nM

Substance: BsSufS (from UniProt O32164)
- Kd [2]: 2630 nM

Substance: CyaY (from UniProt P27838)
- Kd [3]: 18500 nM
